# Biological target: T1, GST-NPM1 (unSUMOylated) (UniProt P06748 1-294)
# T1 construct: Nucleophosmin (NPM1); also called GST-tagged NPM1; unSUMOylated GST-NPM1; source: E. coli, purified
# Assay: pull-down; in vitro GST pull-down; His-hCINAP and GST-NPM1 purified from E. coli; GST protein as negative control
# Conditions: both partners purified
# T1 sequence (P06748 whole entry): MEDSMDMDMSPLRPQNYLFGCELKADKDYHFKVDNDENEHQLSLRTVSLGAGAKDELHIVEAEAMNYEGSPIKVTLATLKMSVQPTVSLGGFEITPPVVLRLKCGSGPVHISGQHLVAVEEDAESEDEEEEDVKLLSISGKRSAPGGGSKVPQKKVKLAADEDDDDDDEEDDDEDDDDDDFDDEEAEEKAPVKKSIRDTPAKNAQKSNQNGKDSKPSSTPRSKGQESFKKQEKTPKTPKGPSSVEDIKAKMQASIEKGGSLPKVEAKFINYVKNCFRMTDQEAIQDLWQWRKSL
binder,measurement,value
"His-hCINAP (natural protein, human, UniProt Q9Y3D8 1-172, looked up, source: E. coli, purified) MLLPNILLTGTPGVGKTTLGKELASKSGLKYINVGDLAREEQLYDGYDEEYDCPILDEDRVVDELDNQMREGGVIVDYHGCDFFPERWFHIVFVLRTDTNVLYERLETRGYNEKKLTDNIQCEIFQVLYEEATASYKEEIVHQLPSNKPEELENNVDQILKWIEQWIKDHNS",binding result,binds

# Reference: article PMC6707248, “hCINAP regulates the DNA-damage response and mediates the resistance of acute myelocytic leukemia cells to therapy” (Nature Communications, 2019)
